Results from article PMC4469990 (2015).
Residue numbers refer to the chain shown, from its start. Like-named read-outs stand apart in the source and are kept apart here.

How the values were obtained:
[1] = biological target: Factor VIII A3C1C2 subunit A3C1C2 (Homo sapiens) (UniProt P00451); conditions: cited from earlier work
[2] = biological target: Factor VIII A1/A3C1C2 dimer A1/A3C1C2 (Homo sapiens) (UniProt P00451); conditions: cited from earlier work
[3] = biological target: Factor VIII A1/A3C1C2 dimer A1/A3C1C2 (Homo sapiens) (UniProt P00451); assay: FXa generation assay; conditions: cited from earlier work
[4] = biological target: T1, Factor VIIIa A1/A3C1C2 dimer A1/A3C1C2 (Homo sapiens, UniProt P00451); assay: FVIIIa reconstitution assay
T1 chain 1: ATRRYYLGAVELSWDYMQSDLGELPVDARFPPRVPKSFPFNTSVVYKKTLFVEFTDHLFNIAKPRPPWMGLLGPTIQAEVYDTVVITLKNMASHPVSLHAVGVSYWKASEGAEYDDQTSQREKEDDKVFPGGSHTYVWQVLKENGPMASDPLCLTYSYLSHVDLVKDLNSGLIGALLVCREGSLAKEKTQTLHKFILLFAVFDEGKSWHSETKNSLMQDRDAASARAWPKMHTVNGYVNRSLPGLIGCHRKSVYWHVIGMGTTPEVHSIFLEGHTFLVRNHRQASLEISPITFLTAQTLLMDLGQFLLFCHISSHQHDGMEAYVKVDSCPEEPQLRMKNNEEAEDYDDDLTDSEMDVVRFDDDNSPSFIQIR
T1 chain 2: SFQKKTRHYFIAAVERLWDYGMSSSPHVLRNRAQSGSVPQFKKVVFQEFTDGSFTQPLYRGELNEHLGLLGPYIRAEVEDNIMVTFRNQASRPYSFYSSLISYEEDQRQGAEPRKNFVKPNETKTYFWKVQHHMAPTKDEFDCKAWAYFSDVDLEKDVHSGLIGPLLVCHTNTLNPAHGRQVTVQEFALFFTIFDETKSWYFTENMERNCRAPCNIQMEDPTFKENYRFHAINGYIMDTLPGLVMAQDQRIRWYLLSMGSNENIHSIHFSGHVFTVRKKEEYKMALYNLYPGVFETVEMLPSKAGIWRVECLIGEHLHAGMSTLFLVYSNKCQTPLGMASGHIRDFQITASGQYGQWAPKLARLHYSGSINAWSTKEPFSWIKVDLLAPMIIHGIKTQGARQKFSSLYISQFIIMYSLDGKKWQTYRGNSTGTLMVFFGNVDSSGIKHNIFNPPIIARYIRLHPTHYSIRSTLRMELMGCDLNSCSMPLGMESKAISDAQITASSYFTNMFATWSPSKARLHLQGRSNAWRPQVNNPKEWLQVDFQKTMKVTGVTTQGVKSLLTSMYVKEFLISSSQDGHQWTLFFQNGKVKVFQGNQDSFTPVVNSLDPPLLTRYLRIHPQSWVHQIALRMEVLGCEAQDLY

Factor VIII A1 subunit A1 (from UniProt P00451)
Kd [1]: 60 nM

Factor VIII A2 subunit A2 (from UniProt P00451)
Kd [2]: 260 nM
Kd [3]: 30 nM

B1: Factor VIIIa A2 subunit A2 (protein)
chain: SVAKKHPKTWVHYIAAEEEDWDYAPLVLAPDDRSYKSQYLNNGPQRIGRKYKKVRFMAYTDETFKTREAIQHESGILGPLLYGEVGDTLLIIFKNQASRPYNIYPHGITDVRPLYSRRLPKGVKHLKDFPILPGEIFKYKWTVTVEDGPTKSDPRCLTRYYSSFVNMERDLASGLIGPLLICYKESVDQRGNQIMSDKRNVILFSVFDENRSWYLTENIQRFLPNPAGVQLEDPEFQASNIMHSINGYVFDSLQLSVCLHEVAYWYILSIGAQTDFLSVFFSGYTFKHKMVYEDTLTLFPFSGETVFMSMENPGLWILGCHNSDFRNRGMTALLKVSSCDKNTGDYYEDSYEDISAYLLSKNNAIEPR
Kd [4]: 56.3 nM

B2: Factor VIIIa A2 subunit A2 (protein)
chain: B1 chain with D128V
Kd [4]: 10 nM
